System: Escherichia coli TOP10
Experiment: shrunken log2 fold change of peptide-encoding DNA abundance (4.5 h post-induction vs induction); higher = less antimicrobial activity (less host growth inhibition)
Conditions: time post-induction: 4.5 h; library: site-saturation at positions 5, 18, 19, 20
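Further: peptides expressed intracellularly from a pBAD plasmid library in pooled LB shake-flask culture, induced with 0.3% L-arabinose, DNA abundance read by NGS, three biological replicates, DESeq2 with apeglm shrinkage.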

Sequence	shrunken log2 fold change
RRIRFRPPRLPRPRPRPINEPRP	-0.11
RRIRTRPPRLPRPRPRPHIAPRP	-0.348
RRIRNRPPRLPRPRPRPRIGPRP	0.0705
RRIRWRPPRLPRPRPRPESNPRP	0.535
RRIRIRPPRLPRPRPRPLQQPRP	-0.293
RRIRYRPPRLPRPRPRPDENPRP	-0.0185
RRIRYRPPRLPRPRPRPRVAPRP	0.0343
RRIRTRPPRLPRPRPRPEKFPRP	-0.376
RRIRKRPPRLPRPRPRPTNSPRP	-0.241
RRIRRRPPRLPRPRPRPPQWPRP	0.66
RRIRCRPPRLPRPRPRPNRLPRP	-0.00311
RRIRLRPPRLPRPRPRPCTRPRP	-0.0398
RRIRYRPPRLPRPRPRPRRIPRP	0.014
RRIRYRPPRLPRPRPRPMKHPRP	-0.495
RRIRERPPRLPRPRPRPYQKPRP	-0.0207
RRIRSRPPRLPRPRPRPNYKPRP	-0.546
RRIRIRPPRLPRPRPRPSEQPRP	-0.0663
RRIRMRPPRLPRPRPRPYFHPRP	-0.614
RRIRNRPPRLPRPRPRPLCFPRP	-0.461
RRIRERPPRLPRPRPRPLAHPRP	-0.368

Sequence	shrunken log2 fold change
RRIRSRPPRLPRPRPRPRIWPRP	0.183
RRIRQRPPRLPRPRPRPPNVPRP	-0.0755
RRIRERPPRLPRPRPRPFLCPRP	-0.143
RRIRYRPPRLPRPRPRPKKGPRP	-0.444
RRIRFRPPRLPRPRPRPEDHPRP	0.000834
RRIRHRPPRLPRPRPRPIFTPRP	-0.191
RRIRCRPPRLPRPRPRPNTVPRP	-0.768
RRIRHRPPRLPRPRPRPKESPRP	-0.069
RRIRCRPPRLPRPRPRPPMIPRP	-0.0902
RRIRARPPRLPRPRPRPLLSPRP	0.367
RRIRMRPPRLPRPRPRPLVLPRP	0.141
RRIRSRPPRLPRPRPRPEGIPRP	0.0592
RRIRYRPPRLPRPRPRPTKWPRP	-0.489
RRIRVRPPRLPRPRPRPMKEPRP	-0.04
RRIRRRPPRLPRPRPRPMPCPRP	0.0929
RRIRHRPPRLPRPRPRPLPIPRP	-0.598
RRIRMRPPRLPRPRPRPMIMPRP	0.421
RRIRERPPRLPRPRPRPQNFPRP	-0.486
RRIRRRPPRLPRPRPRPQGKPRP	0.0379
RRIRTRPPRLPRPRPRPNQMPRP	-0.334

Sequence	shrunken log2 fold change
RRIRTRPPRLPRPRPRPVDSPRP	0.0391
RRIRNRPPRLPRPRPRPIMIPRP	-0.363
RRIRSRPPRLPRPRPRPMLMPRP	0.00173
RRIRVRPPRLPRPRPRPACKPRP	-0.0847
RRIRARPPRLPRPRPRPTKAPRP	0.437
RRIRMRPPRLPRPRPRPMNVPRP	-0.147
RRIRPRPPRLPRPRPRPIEVPRP	-0.113
RRIRYRPPRLPRPRPRPFQCPRP	-0.157
RRIRKRPPRLPRPRPRPHKTPRP	-0.0618
RRIRQRPPRLPRPRPRPENQPRP	0.128
RRIRERPPRLPRPRPRPRWQPRP	0.245
RRIRSRPPRLPRPRPRPKRQPRP	0.000345
RRIRTRPPRLPRPRPRPCCYPRP	-0.43
RRIRGRPPRLPRPRPRPTCRPRP	0.825
RRIRFRPPRLPRPRPRPGEYPRP	-0.114
RRIRPRPPRLPRPRPRPMHDPRP	-0.0561
RRIRSRPPRLPRPRPRPFHHPRP	-0.804
RRIRPRPPRLPRPRPRPFLTPRP	-0.254
RRIRVRPPRLPRPRPRPPSPPRP	0.417
RRIRHRPPRLPRPRPRPHHPPRP	0.0301

Reference: the supplement of paper PMC9112550, “Optimization of the antimicrobial peptide Bac7 by deep mutational scanning” (BMC Biology, 2022)
